Values quoted from earlier work in PMC7114193.

Target: ACE2 (Homo sapiens) (UniProt Q9BYF1)
Sequence (Q9BYF1 18-740): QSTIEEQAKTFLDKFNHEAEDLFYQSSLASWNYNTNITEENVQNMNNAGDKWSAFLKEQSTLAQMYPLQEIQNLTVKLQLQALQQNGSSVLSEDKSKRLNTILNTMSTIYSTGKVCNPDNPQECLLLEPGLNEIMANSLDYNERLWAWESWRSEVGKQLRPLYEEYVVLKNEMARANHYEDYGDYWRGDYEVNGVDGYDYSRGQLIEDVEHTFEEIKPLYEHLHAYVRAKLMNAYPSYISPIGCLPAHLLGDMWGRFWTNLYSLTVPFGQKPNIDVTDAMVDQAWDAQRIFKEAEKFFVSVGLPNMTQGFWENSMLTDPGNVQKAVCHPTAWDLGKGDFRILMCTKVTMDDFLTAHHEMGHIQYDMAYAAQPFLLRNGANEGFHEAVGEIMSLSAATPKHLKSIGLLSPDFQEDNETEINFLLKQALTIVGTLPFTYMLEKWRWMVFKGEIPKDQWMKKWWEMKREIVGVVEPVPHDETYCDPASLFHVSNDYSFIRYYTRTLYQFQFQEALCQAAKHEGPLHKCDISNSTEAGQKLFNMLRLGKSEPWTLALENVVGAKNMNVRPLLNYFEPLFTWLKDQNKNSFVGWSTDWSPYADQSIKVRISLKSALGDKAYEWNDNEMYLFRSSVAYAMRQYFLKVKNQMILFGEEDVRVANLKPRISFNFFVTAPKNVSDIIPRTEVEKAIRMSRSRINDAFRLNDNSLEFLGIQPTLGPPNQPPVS

For RBD-Fc 318-510 (from UniProt P59594), the Kd is listed as 10 nM.
